# Test results published in FireProtDB (doi:10.1002/prot.10406).
# Several values for one entry are separate records, joined by “and”; a condition that tells them apart may be missing. Equal entries are not always repeated.
# B1: Alpha-lactalbumin wild type, P00709 (protein)
# chain: MRFFVPLFLVGILFPAILAKQFTKCELSQLLKDIDGYGGIALPELICTMFHTSGYDTQAIVENNESTEYGLFQISNKLWCKSSQVPQSRNICDISCDKFLDDDITDDIMCAKKILDIKGIDYWLAHKALCTEKLEQWLCEKL
# Settings: Homo sapiens, Urea, CD, phosphate citrate borate 2 mM 2 mM 2 mM, NaCl 10 mM, whole UniProt chain shown
protein,measurement,setting,value
B1,denaturant m value,"pH 2, 20 °C",0.54 kcal/mol/M and 0.67 kcal/mol/M
same,denaturant m value,"pH 7, 2 °C, transition: 3",0.95 kcal/mol/M and 0.55 kcal/mol/M
same,denaturant midpoint (higher = more stable),"pH 7, 2 °C, transition: 3",2.24 M and 2.34 M
same,unfolding free energy,"pH 7, 2 °C, transition: 3",2.13 kcal/mol and 1.27 kcal/mol
